According to patent US20240301076A1 (CEPHALON, published 2024):

T1: human CXCR2 (human, UniProt P25025 1-360)
T1 construct: also called CXC chemokine receptor 2; hCXCR2
T1 sequence: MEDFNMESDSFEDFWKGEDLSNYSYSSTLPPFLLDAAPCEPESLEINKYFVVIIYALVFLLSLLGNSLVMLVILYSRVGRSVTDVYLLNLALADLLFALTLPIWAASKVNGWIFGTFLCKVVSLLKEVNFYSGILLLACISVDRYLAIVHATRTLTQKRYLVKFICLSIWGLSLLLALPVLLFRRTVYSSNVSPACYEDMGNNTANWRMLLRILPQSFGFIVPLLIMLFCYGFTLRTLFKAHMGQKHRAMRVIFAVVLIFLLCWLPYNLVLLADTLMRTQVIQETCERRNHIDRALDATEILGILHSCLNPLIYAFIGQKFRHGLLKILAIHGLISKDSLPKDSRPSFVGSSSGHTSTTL

B1: BKO-4A8 variant VH G52aD (antibody, human IgG4 S228P, lambda, V domains shown)
VH: EVQLLESGGGLVQPGGSLRLSCAASGFTFSSSTMSWVRQAPGKGLEWVSAISDRGRNTYYADSVKGRFTISRDNSRNTLYLQMNSLRAEDTAVYYCAIQMGYWGQGILVTVSS
VL: QSALTQPPSASGSPGQSVTISCIGTSSDVGGYNYVSWYQQHPDKAPKLMIYEVNKRPSGVPDRFSGSKSGNTASLTVSGLQAEDEADYYCSSYAGNNNFGVFGGGTKLTVLG
notes: IgG4 S228P, lambda; parental light chain; also called 4A8 VH G52aD
B2: BKO-4A8 variant VH M34W (antibody, human IgG4 S228P, lambda, V domains shown)
VH: EVQLLESGGGLVQPGGSLRLSCAASGFTFSSSTWSWVRQAPGKGLEWVSAISGRGRNTYYADSVKGRFTISRDNSRNTLYLQMNSLRAEDTAVYYCAIQMGYWGQGILVTVSS
VL: QSALTQPPSASGSPGQSVTISCIGTSSDVGGYNYVSWYQQHPDKAPKLMIYEVNKRPSGVPDRFSGSKSGNTASLTVSGLQAEDEADYYCSSYAGNNNFGVFGGGTKLTVLG
notes: IgG4 S228P, lambda; parental light chain; also called 4A8 VH M34W
B3: BKO-4A8 variant VH S32H (antibody, human IgG4 S228P, lambda, V domains shown)
VH: EVQLLESGGGLVQPGGSLRLSCAASGFTFSSHTMSWVRQAPGKGLEWVSAISGRGRNTYYADSVKGRFTISRDNSRNTLYLQMNSLRAEDTAVYYCAIQMGYWGQGILVTVSS
VL: QSALTQPPSASGSPGQSVTISCIGTSSDVGGYNYVSWYQQHPDKAPKLMIYEVNKRPSGVPDRFSGSKSGNTASLTVSGLQAEDEADYYCSSYAGNNNFGVFGGGTKLTVLG
notes: IgG4 S228P, lambda; parental light chain; also called 4A8 VH S32H
B4: BKO-4A8 variant VH I51H (antibody, human IgG4 S228P, lambda, V domains shown)
VH: EVQLLESGGGLVQPGGSLRLSCAASGFTFSSSTMSWVRQAPGKGLEWVSAHSGRGRNTYYADSVKGRFTISRDNSRNTLYLQMNSLRAEDTAVYYCAIQMGYWGQGILVTVSS
VL: QSALTQPPSASGSPGQSVTISCIGTSSDVGGYNYVSWYQQHPDKAPKLMIYEVNKRPSGVPDRFSGSKSGNTASLTVSGLQAEDEADYYCSSYAGNNNFGVFGGGTKLTVLG
notes: IgG4 S228P, lambda; parental light chain; also called 4A8 VH I51H
B5: BKO-4A8 variant VH Y102K (antibody, human IgG4 S228P, lambda, V domains shown)
VH: EVQLLESGGGLVQPGGSLRLSCAASGFTFSSSTMSWVRQAPGKGLEWVSAISGRGRNTYYADSVKGRFTISRDNSRNTLYLQMNSLRAEDTAVYYCAIQMGKWGQGILVTVSS
VL: QSALTQPPSASGSPGQSVTISCIGTSSDVGGYNYVSWYQQHPDKAPKLMIYEVNKRPSGVPDRFSGSKSGNTASLTVSGLQAEDEADYYCSSYAGNNNFGVFGGGTKLTVLG
notes: IgG4 S228P, lambda; parental light chain; also called 4A8 VH Y102K
B6: BKO-4A8 variant VH T33A (antibody, human IgG4 S228P, lambda, V domains shown)
VH: EVQLLESGGGLVQPGGSLRLSCAASGFTFSSSAMSWVRQAPGKGLEWVSAISGRGRNTYYADSVKGRFTISRDNSRNTLYLQMNSLRAEDTAVYYCAIQMGYWGQGILVTVSS
VL: QSALTQPPSASGSPGQSVTISCIGTSSDVGGYNYVSWYQQHPDKAPKLMIYEVNKRPSGVPDRFSGSKSGNTASLTVSGLQAEDEADYYCSSYAGNNNFGVFGGGTKLTVLG
notes: IgG4 S228P, lambda; parental light chain; also called 4A8 VH T33A
B7: BKO-4A8 variant VH Y102S (antibody, human IgG4 S228P, lambda, V domains shown)
VH: EVQLLESGGGLVQPGGSLRLSCAASGFTFSSSTMSWVRQAPGKGLEWVSAISGRGRNTYYADSVKGRFTISRDNSRNTLYLQMNSLRAEDTAVYYCAIQMGSWGQGILVTVSS
VL: QSALTQPPSASGSPGQSVTISCIGTSSDVGGYNYVSWYQQHPDKAPKLMIYEVNKRPSGVPDRFSGSKSGNTASLTVSGLQAEDEADYYCSSYAGNNNFGVFGGGTKLTVLG
notes: IgG4 S228P, lambda; parental light chain; also called 4A8 VH Y102S
B8: BKO-4A8 variant VH S32Q (antibody, human IgG4 S228P, lambda, V domains shown)
VH: EVQLLESGGGLVQPGGSLRLSCAASGFTFSSQTMSWVRQAPGKGLEWVSAISGRGRNTYYADSVKGRFTISRDNSRNTLYLQMNSLRAEDTAVYYCAIQMGYWGQGILVTVSS
VL: QSALTQPPSASGSPGQSVTISCIGTSSDVGGYNYVSWYQQHPDKAPKLMIYEVNKRPSGVPDRFSGSKSGNTASLTVSGLQAEDEADYYCSSYAGNNNFGVFGGGTKLTVLG
notes: IgG4 S228P, lambda; parental light chain; also called 4A8 VH S32Q
B9: BKO-4A8 variant VL K53D (antibody, human IgG4 S228P, lambda, V domains shown)
VH: EVQLLESGGGLVQPGGSLRLSCAASGFTFSSSTMSWVRQAPGKGLEWVSAISGRGRNTYYADSVKGRFTISRDNSRNTLYLQMNSLRAEDTAVYYCAIQMGYWGQGILVTVSS
VL: QSALTQPPSASGSPGQSVTISCIGTSSDVGGYNYVSWYQQHPDKAPKLMIYEVNDRPSGVPDRFSGSKSGNTASLTVSGLQAEDEADYYCSSYAGNNNFGVFGGGTKLTVLG
notes: IgG4 S228P, lambda; parental heavy chain; also called 4A8 VL K53D
B10: BKO-4A8 variant VH S32W (antibody, human IgG4 S228P, lambda, V domains shown)
VH: EVQLLESGGGLVQPGGSLRLSCAASGFTFSSWTMSWVRQAPGKGLEWVSAISGRGRNTYYADSVKGRFTISRDNSRNTLYLQMNSLRAEDTAVYYCAIQMGYWGQGILVTVSS
VL: QSALTQPPSASGSPGQSVTISCIGTSSDVGGYNYVSWYQQHPDKAPKLMIYEVNKRPSGVPDRFSGSKSGNTASLTVSGLQAEDEADYYCSSYAGNNNFGVFGGGTKLTVLG
notes: IgG4 S228P, lambda; parental light chain; also called 4A8 VH S32W
B11: BKO-4A8 variant VH M34D (antibody, human IgG4 S228P, lambda, V domains shown)
VH: EVQLLESGGGLVQPGGSLRLSCAASGFTFSSSTDSWVRQAPGKGLEWVSAISGRGRNTYYADSVKGRFTISRDNSRNTLYLQMNSLRAEDTAVYYCAIQMGYWGQGILVTVSS
VL: QSALTQPPSASGSPGQSVTISCIGTSSDVGGYNYVSWYQQHPDKAPKLMIYEVNKRPSGVPDRFSGSKSGNTASLTVSGLQAEDEADYYCSSYAGNNNFGVFGGGTKLTVLG
notes: IgG4 S228P, lambda; parental light chain; also called 4A8 VH M34D
B12: BKO-4A8 variant VH R53Q (antibody, human IgG4 S228P, lambda, V domains shown)
VH: EVQLLESGGGLVQPGGSLRLSCAASGFTFSSSTMSWVRQAPGKGLEWVSAISGQGRNTYYADSVKGRFTISRDNSRNTLYLQMNSLRAEDTAVYYCAIQMGYWGQGILVTVSS
VL: QSALTQPPSASGSPGQSVTISCIGTSSDVGGYNYVSWYQQHPDKAPKLMIYEVNKRPSGVPDRFSGSKSGNTASLTVSGLQAEDEADYYCSSYAGNNNFGVFGGGTKLTVLG
notes: IgG4 S228P, lambda; parental light chain; also called 4A8 VH R53Q
B13: BKO-4A8 variant VL K53A (antibody, human IgG4 S228P, lambda, V domains shown)
VH: EVQLLESGGGLVQPGGSLRLSCAASGFTFSSSTMSWVRQAPGKGLEWVSAISGRGRNTYYADSVKGRFTISRDNSRNTLYLQMNSLRAEDTAVYYCAIQMGYWGQGILVTVSS
VL: QSALTQPPSASGSPGQSVTISCIGTSSDVGGYNYVSWYQQHPDKAPKLMIYEVNARPSGVPDRFSGSKSGNTASLTVSGLQAEDEADYYCSSYAGNNNFGVFGGGTKLTVLG
notes: IgG4 S228P, lambda; parental heavy chain; also called 4A8 VL K53A
B14: BKO-4A8 variant VL E50D (antibody, human IgG4 S228P, lambda, V domains shown)
VH: EVQLLESGGGLVQPGGSLRLSCAASGFTFSSSTMSWVRQAPGKGLEWVSAISGRGRNTYYADSVKGRFTISRDNSRNTLYLQMNSLRAEDTAVYYCAIQMGYWGQGILVTVSS
VL: QSALTQPPSASGSPGQSVTISCIGTSSDVGGYNYVSWYQQHPDKAPKLMIYDVNKRPSGVPDRFSGSKSGNTASLTVSGLQAEDEADYYCSSYAGNNNFGVFGGGTKLTVLG
notes: IgG4 S228P, lambda; parental heavy chain; also called 4A8 VL E50D
B15: BKO-4A8 variant VH G54D (antibody, human IgG4 S228P, lambda, V domains shown)
VH: EVQLLESGGGLVQPGGSLRLSCAASGFTFSSSTMSWVRQAPGKGLEWVSAISGRDRNTYYADSVKGRFTISRDNSRNTLYLQMNSLRAEDTAVYYCAIQMGYWGQGILVTVSS
VL: QSALTQPPSASGSPGQSVTISCIGTSSDVGGYNYVSWYQQHPDKAPKLMIYEVNKRPSGVPDRFSGSKSGNTASLTVSGLQAEDEADYYCSSYAGNNNFGVFGGGTKLTVLG
notes: IgG4 S228P, lambda; parental light chain; also called 4A8 VH G54D
B16: BKO-4A8 variant VH S32Y (antibody, human IgG4 S228P, lambda, V domains shown)
VH: EVQLLESGGGLVQPGGSLRLSCAASGFTFSSYTMSWVRQAPGKGLEWVSAISGRGRNTYYADSVKGRFTISRDNSRNTLYLQMNSLRAEDTAVYYCAIQMGYWGQGILVTVSS
VL: QSALTQPPSASGSPGQSVTISCIGTSSDVGGYNYVSWYQQHPDKAPKLMIYEVNKRPSGVPDRFSGSKSGNTASLTVSGLQAEDEADYYCSSYAGNNNFGVFGGGTKLTVLG
notes: IgG4 S228P, lambda; parental light chain; also called 4A8 VH S32Y
B17: BKO-4A8 variant VH R53S (antibody, human IgG4 S228P, lambda, V domains shown)
VH: EVQLLESGGGLVQPGGSLRLSCAASGFTFSSSTMSWVRQAPGKGLEWVSAISGSGRNTYYADSVKGRFTISRDNSRNTLYLQMNSLRAEDTAVYYCAIQMGYWGQGILVTVSS
VL: QSALTQPPSASGSPGQSVTISCIGTSSDVGGYNYVSWYQQHPDKAPKLMIYEVNKRPSGVPDRFSGSKSGNTASLTVSGLQAEDEADYYCSSYAGNNNFGVFGGGTKLTVLG
notes: IgG4 S228P, lambda; parental light chain; also called 4A8 VH R53S
B18: BKO-4A8 variant VH S32L (antibody, human IgG4 S228P, lambda, V domains shown)
VH: EVQLLESGGGLVQPGGSLRLSCAASGFTFSSLTMSWVRQAPGKGLEWVSAISGRGRNTYYADSVKGRFTISRDNSRNTLYLQMNSLRAEDTAVYYCAIQMGYWGQGILVTVSS
VL: QSALTQPPSASGSPGQSVTISCIGTSSDVGGYNYVSWYQQHPDKAPKLMIYEVNKRPSGVPDRFSGSKSGNTASLTVSGLQAEDEADYYCSSYAGNNNFGVFGGGTKLTVLG
notes: IgG4 S228P, lambda; parental light chain; also called 4A8 VH S32L
B19: BKO-4A8 variant VH G101D (antibody, human IgG4 S228P, lambda, V domains shown)
VH: EVQLLESGGGLVQPGGSLRLSCAASGFTFSSSTMSWVRQAPGKGLEWVSAISGRGRNTYYADSVKGRFTISRDNSRNTLYLQMNSLRAEDTAVYYCAIQMDYWGQGILVTVSS
VL: QSALTQPPSASGSPGQSVTISCIGTSSDVGGYNYVSWYQQHPDKAPKLMIYEVNKRPSGVPDRFSGSKSGNTASLTVSGLQAEDEADYYCSSYAGNNNFGVFGGGTKLTVLG
notes: IgG4 S228P, lambda; parental light chain; also called 4A8 VH G101D

molecular target: T1, human CXCR2; assay: flow cytometry, CXCR2-transfected Expi293F cells
Procedure: Harvested cells were resuspended in FACS buffer (1×PBS+0.5% (w/v) bovine serum albumin (BSA)+2 mM EDTA pH 7.2). Approximately 2×10⁵ cells were added per well in a 96-well round-bottomed plate. Cells were pelleted by centrifugation at 400 g for 5 mins at 4° C. and supernatants discarded. 25 μL of each test antibody or control antibody was added to the cells and incubated for 30 minutes at 4° C. Cells were washed twice in 100 μL FACS buffer followed by centrifugation at 400 g for 5 mins at 4° C.
For detection, 50 μL of secondary antibody (Table 2) was added to relevant samples. Commercially available antibodies that bound to transfected CXCR family members were used as positive controls to ensure that the cells were expressing the receptors. Cells were washed twice in 200 μL of FACS buffer followed by centrifugation at 400 g for 5 mins at 4° C. Before sample acquisition, cells were resuspended in 100 μL of FACS buffer. Samples were acquired using the high throughput sampler on a FACSCanto™ II cytometer (Beckton-Dickinson).
Each variant heavy chain was co-expressed with the parental light chain and vice versa.

| Binder | Fold change in binding relative to BKO-4A8 |
| --- | --- |
| B1 | 1.18 fold |
| B2 | 1.17 fold |
| B3 | 0.86 fold |
| B4 | 1.8 fold |
| B5 | 1.3 fold |
| B6 | 1.3 fold |
| B7 | 1.5 fold |
| B8 | 1.71 fold |
| B9 | 1.4 fold |
| B10 | 0.83 fold |
| B11 | 1.6 fold |
| B12 | 0.64 fold |
| B13 | 1.4 fold |
| B14 | 2 fold |
| B15 | 1 fold |
| B16 | 1.33 fold |
| B17 | 1 fold |
| B18 | 1.33 fold |
| B19 | 1 fold |
